Measured values: article PMC5643558

Tests used:
TRIM21 [1] = target: TRIM21 (UniProt P19474); experiment: SFB-TRIM21 pull-down from cells, Flag blot; settings: reference: WT Flag-rPFKP, EGF; sites S386
TRIM21 [2] = target: TRIM21 (UniProt P19474); experiment: S-tag pull-down after in vitro kinase assay; settings: sites S386

Substance: PFKP (phosphofructokinase 1 platelet isoform) (from UniProt Q01813) Flag-rPFKP S386A, EGF
- binding against the reference (TRIM21 [1]): stronger

Substance: PFKP (phosphofructokinase 1 platelet isoform) (from UniProt Q01813) PFKP S386A incubated with active GST-AKT1
- binding against the reference (TRIM21 [2]; reference: WT PFKP incubated with active GST-AKT1): stronger

Substance: PFKP (phosphofructokinase 1 platelet isoform) (from UniProt Q01813) WT PFKP incubated with active GST-AKT1
- binding against the reference (TRIM21 [2]; reference: WT PFKP without AKT1): weaker
